# Test: label from the status in PepcDB records
row,Sequence,protein production
1,MPNSRPRPRRGAGGGAGAAGRDRLVARSLQSAEHCLGDQDFGTAYAHYLLVLSLAPELKDDVKETFQYTLFKWAEELHALSRIQDLLGCYEQALELFPDDEVICNSMGEHLFRMGFRDEAAGYFHKAVKLNPDFNDAKENFYRVANWLVERWHFIMLNDTRRNMVYNAAIQKAVCLGSRTVLDIGTGTGILSMFAKKAGAQSVYACELSKTMYELACDVVAANKMENGIKLLHMKSLDIEIPKHIPERVSLVVTETVDAGVFGEGIVESLIHAWEHLLLQPKTKEENGNCGKYGKVIPAGAVIFGMAVECAEIRRHHRVGAKDIAGIHLPTNVKFQSPAYTSVDTEETVEPYTTEKMSGIPGGYLPLTECFQIMKVDFNNLQELKSLATKKPHSLNVPAIKEGVLDAIMVWFVLQLDDEYSLSTSPSEETCWEQAVYPVQALEDYCIQPGDRVTMEASCHDCYLRIQGISILHLEHEMEVMKGFTKSKDLLSLGNEAELCSALANLQTSRPEALEQTCMLEPTEIALLNNIPYHEGFKTAMRKVLSSLAPELLWQPMDTHCQYMEMNSGSGQSDAAPSTADPFYVLDVSEGFSLLPILAGTLGHVKPYSSVEKDQHCIALDLIAEANHFPKETLEFWLRHIEDEAAVLQRPKSDKLWSIIILDVIEPSGLIQQELMEKAAISRCLLQSGGKIFPQYVLMFGMLVESQTLVEESAVQGTEHTLGLNIAPFINQFQVPIRVCLDLSSLPCVPLSQPVELLRLDLMTPYLNTSNKEVKVRVCRSGRVTAVPFWFHLCLDDEVRLDTSGEASHWKQAAVVLDNPIQVQAGEELVLSVEHHKSNVSIAVKP,failed
2,MPNTNPVAAWKALKEGNERFVAGRPQHPSQSVDHRAGLAAGQKPTAVIFGCADSRVAAEIIFDQGLGDMFVVRTAGHVIDSAVLGSIEYAVTVLNVPLIVVLGHDSCGAVNAALAAINDGTLPGGYVRDVVERVAPSVLLGRRDGLSRVDEFEQRHVHETVAILMARSSAISERIAGGSLAIVGVTYQLDDGRAVLRDHIGNIGEEV,not failed
3,MPNTPWSATSQNLGQDFHNWSGGLRFRPSRLDVPEDEETVAALVRAAARQGRSIRPVGSAHSSSEIYVTDDILVSMAGICGLREHDAQHHRATVGAGSQLTELSKELQAAGMTLSNFGDVATQTVGGAIGTGTHGSGRDFPNLSMMLVGGRLVTAGGEIRTFDVEEEPDFVRALRVSFGTLGILTWTTLKLEPLHDLHRQEWCLAFEPCMEVLDKLSRENRNFDFYWYPRSDEVKIRCLNPPGEEKDYGAFARLAKDETGPPHEVIPQHSDLPHRFEEMEYSMPAEAGPECLGKLRARIKERWRRSVGWRLLFRYIKADDSWLSEAYGRDSVSISLHQNATLPYWDFFLDLEPIMRDHGGRPHWAKKHSLRAAELRPLYPMWDRFLALRQEMDPGGRFLTRYLRGLLGC,failed
4,MPPLCRRQSGVPSGRRARHSGGMRLLVLGGTEFVGRSVVEAALGRGWEVTVLHRGRHAPPPGVRALHGDRTAPDGLTALTGAEDTWDAVVDTWSAAPRAVRDAARLLRQRAGRYVYVSSCSVYAWAPPAGYAEDAPLVEGASADAGQRDYARDKRGAELAVLDAFGADRSVLVRAGLILGPYENVGRLPWWLNRLARGGPVLAPGPRDLPLQYIDVRDLADWVLGAVERELSGPYNLVSPPGHTTMGGLLEACATVTGGTAELRWTSPETVLAAGIEPWVQLPVWTPPGSDLHDALHTADVSRALATGLVCRPARDTAAGTWTWLRDLGGTAPQRPDRPPVGLDPETEAKVLAADGPGGGVSDTTP,failed
5,MPPMLSGLLARLVKLLLGRHGSALHWRAAGAATVLLVIVLLAGSYLAVLAERGAPGAQLITYPRALWWSVETATTVGYGDLYPVTLWGRLVAVVVMVAGITSFGLVTAALATWFVGREQERRGHFVRHSEKAAEEAYTRTTRALHERFDRLERMLDDNRR,failed
6,MPPPAMLAFDDGLARKSNDNEWQGFRVFPGENTNPNPNINFLVKKAILQNEKSITPLFSRSSARDDSFRIVLPPALPPPRDSTVPLPMLPEPMRVRKKLSHQESVIFMSKSRFAEKILYKEEDFKCNAFCLSLPGFGKNKLIRSSSKRQNSMEKKMIRASSFTGSTVSVRASLEKFECGSWASTTALIQDNGRLFFDFPVEMTKCNSRGGNGGRDVQEPVTSGFLFDRETETLALRSVLKTRSTRDHRRSAESSPQRRVRFSTSSSSASVSCPTSPRTCITPRLRKARDDFNTFLTAQNA,failed
7,MPPVWTLPRLYQHFQGAIDLELWTIPYYLTVLYSIKDPTTVPYRLIQAAVYQEMLHAQLVSNIANAYGYSPTLSAPEYVGTAVPHIDFDLDTPNPTSIFTPYSAELGPLDLTRVNTMCLIEYPEWRTQREPDLADDVTDYGSIGEFYDALRVGMEQLRGHVRGNQKQMDEFGPFYQNSPPLTVTESGDAGFLQALTLVDIIVDQGEGQTQPVETIPTEFQNTADGFQDAWPHFQRFDFIRRMPNWPGVYTGVTDPPAGSPGAEAQARLIADFAGFLDILNGMFSGGGAPPAFGVQMAKLGGDILSCWKLGAVPRYS,not failed
8,MPQDTTNPSTGTAEQRTATDTTVQLRAGWQGRFYEDFAVGDVYKHPYGRTVTETDNVWFTNLTMNANPMHFNAAYASGTEFDERLVNGLFVIALSVGMSVVDVSANATANLGYDDIQHHAPVFHGDTLFAESEVLSKRESESRPHVGMVTTELRTYTQDGELVLSLERTPMVRKRGAADPSAARPPGWPAGVGTQPDAERTVPDGESR,failed
9,MPQITLVFISLSGNTLSFVKRLSLYLADNYDYHVKQINIKDLKHETFPVKEEFVAILPTYLEGGNGVDSGDVEILTTPLGEFIAAHGNAQRCLGIIGSGNKNFNHQYCLTAKQYAKRFGFPLLGDFELRGTPDDISRLAQVIMEASSRHSSNDTQTL,failed
10,MPQKTKDTPMMRQYFAVKNQYPDAFLFYRLGDFYEMFFDDAIKGAQLLELTLTTRNHSAENPIPMCGVPHRAVQNYIDILVDKGYKVAICEQMEDPKLAKGMVKREVIQLVTPGTTLERGAEQAKTNNYLTALIQRDQQYGFAYADLSTGELKTSVLTTNDTLINELTSLQTKEIVVDDSVASDLRDQIKTLGILISEQNNVTPQAQLSYLTQDLTVDLEQQVVERLLMYITVTQKRSLAHLQKAIAYEPSYFLKLDHNSKYNLELMKSIRTGKKQGTLLWLLDETKTAMGGRLLKQWIDRPLIVKADIETRQNKVATLLDHYFERSNLQEELTKVYDLERLAGRVAFGSVNGRDLVQLKTSLRQIPKIRYILSELDTQVFNDEVNQLDPVEDVADLIDAAIVEDAPLSVTDGGVIKDGYNEQLDQYRDAMNNGKKWIAELEAQERATTGIKNLKIGFNRVFGYYIEVTKANLAQLPKDRYERKQTLTNAERFSTPELKSHESLILEAESHSTDLEYQLFTKVRETVKKAIQRLQTLAKAVAAIDVLQSFAVVSEDYHFVRPKLTKSHDLKIVDGRHPVVEKVMGNQSYVPNNVTMSPDETVLLITGPNMSGKSTYMRQLALTVIMAQIGCFVPAKSAQLPIFDQIFTRIGATDDLISGQSTFMVEMQEANNALQHATANSLVLFDEIGRGTATYDGMALAQAIIEFVHNHIHAKTLFSTHYHELTALDQELSGLRNVHVGATEQDGELVFLHKVEPGAADKSYGVHVAKLAGMPTSLLERANKILTSLENQTSTVSTTAASIAASDAANSVAPNTAASMPVEAADESQPVESETPVAEAPVAEAGDEQLSLFAEPAVTDAKGEKVLQQLKTLNLMAMTPMDVMNQLYKWQQKLGK,failed
11,MPQNQLVITIIDESGSKQLKFSKNLKRNLIISVVIFLLIVGLGVGFLKFLIAKMDTMTAERNAVLRDFRDLYQKNYTLTKEIKNKREELFIVGQKIRTIESLIEVKRGANGGVHLYDEVDLDNLNLAQKHLALMLIPNGMPIKTYSAIKPTKERNHPIKKIKGVESGIDFIAPLNTPVYASADGIVDFVKTNSNVGYGNLVRIEHAFGFSSIYTHLDHVNVQPKSFIQKGQLIGYSGKSGNSGGEKLHYEVRFLGKILDAQKFLAWDLDHFQSALEENKFIEWKNLFWVLEDIVQLQEHVDKDALISQ,failed
12,MPQVDPELFDRGQFQAELALKSSPIAAFKKAIRQFREVLDNRFNSGRDIRRLIEDRAWCVDQILQQAWQRFDWGDDADIALVAVGGYGRGELHPYSDVDLLILLDSEDQESFREPIEGFLTLLWDIGLEVGQSVRSVQQCAEEARADLTVITTLMECRTICGPDSLRQRMLQVTGSAHMWPSKEFFLAKRHEQQRRHAKYNDTEYNLEPNVKGSPGGLRDIQTILWMARRQFGSLNLHALVREGFLVESECSMLASSQEFLWRVRYALHMLAGRAEDRLLFDHQRSIARLFGYEDNDVKLAVERFMQKYYRVVMAISELNDLIIQHFEEVILPCEQPVQIQPLNSRFQLRDGYIEVTHPNVFKRTPFALLEIFVLMAQHPEIKGVRADTIRLLRDSRHLIDDEFRHDIRNTSLFIELFKSSQGIHRNLRRMNRYGILGRYLPEFGHIIGQMQHDLFHIYTVDAHTLNLIKHLRKLNRPEMAEKYPLASKIIDRLPKPELIYIAGLYHDIAKGRGGDHSELGAVDAEAFCQSHQLPLWDTQLVSWLVQNHLVMSTTAQRKDLSDPQVIFDFAQLVGDQTHLDYLYVLTVADINATNPTLWNSWRASLLRQLYTETKRALRRGLENPVDREEQIRQTQTAALDQLVRNGIDQDDAEQLWSQLGDDYFLRHTAGDVAWHTEAILQHPDDGTPLVLIKETTQREFESGSQIFIYAADQHDFFAVTVAAMDQLNLSIQDARIITSTSQFTLDTYIVLDADGDSIGNNPERIAEIREGLIDALKNPDDYPTIIQRRVPRQLKHFAFAPQVTISTDALRQVSVLEVIAPDRPGLLARIGGIFLDFDLSVQNAKIATLGERVEDVFYITDARNQPLADPDLCKRLQAALVEQLSQDNGRDT,failed
13,MPRFRSVFLALLVVPLVDAVFLVFVAGELGWQLTVALVVLTALLGTLFVRAEGRATLSRLQASVARGDPPTNELVDGGLLIAAGAFLLTPGLVTDALGFLIVIPVTRVAFRWGVKRYVTPKLDAKTGGFVSGNVYTFGFPGGDGGAGGDPRSGFGGGAGDGDDDTINLGDDAYDVSFEDDADGDQ,failed
14,MPRKNQDLYHHYPQKDRKFTMYKLSEKGEQIREMFSDIAPRYDFLNRLLSFGIDRRWRRIAVQCARWSEGGKILDVATGTGDVALEIARQTPDSVSIIGIDITEGMVVLGREKVAQSPYARRITLEIAPCEAIPFPDNTFDSVTIAFGIRNVVDRRQGLAEMQRILKPGGRAVILEFSTPRSQFFKRVYYFYFLRLLPAIGGLFSNFSAYKYLPDSVLEFPSQEEFKTLMRSVGFHSTTHRDLTFGIATIYTGEKAAQN,failed
15,MPRRSALLGQPLFRLLAINLAIGVTIAALLLGGLLYLNPGHLRDLIFADDSPGTALGLLLFGFVVTFGSAAMGSAIMAMGSDLRGGGKGGRKLALPIEMIPGAKAIPVRAEHGARAVRRHGSL,failed
16,MPRYKTVEQVLSLMKDRTRVRNIGIIAHVDHGKTTTSDTLLAASGIISPKVAGEALALDYLNVEQQRGITVKAANISLYHEAEGKGYVINLIDTPGHVDFSGRVTRSLRVLDGSIVVVDAVEGIMTQTETVLRQSLEERVRPILFINKVDRLVKELKLSPQEMLNRLLDIIRQVNNLIDMYGEPEFKEKWMINPQAGNVIFGSAKDKWGFSLPMAQKKGINMKNVIDAYTASDKSKLEELAAQAPINEALLDAAIKFVPNPIEAQKYRIPKIWKGDLDNELAKAMLNADPNGPIVFMITDMKVDPHAGLVATGRVFSGTLRSGEELWLVNAKTSQRILQVSLYMGPTRELAEEIPAGNIAAVLGLDRARSGETAISVGFSNVQGSFERLHYISEPVVTIAVEPKNPKDLTKMIDALRKLSIEDPNLVVKINEETGEYLLSGMGFLHLEVSLQLLRENYGIDVVTTPPIVVYRESIRAKSQVFEGKSPNKHNKFYLSVEPLNDKTIELISNGTIREDMDSKEMAKILRDEASWDYDEAKRIIAIDENVNVFVDLTSGVQHLREVMDTVLQGFRLAMKEGPLAHEPIRGVKVILHDAVIHEDPAHRGPAQIYPAVRNSIFAGFLTSRPTLLEPIQKLDIRVPADLIGNVTAVITRKRGKILDVSQIANMSRITAEIPVSESYDMASELRGSTGGRAFWGTEFSRWAPVPDSILLDVVTKIRERKGLPKELPKVEDFLS,failed

# From a protein production outcome set (Wang et al. 2014)
